Laboratory results taken from the supplement of paper PMC7125110.
± gives the standard error. Fewer inactive variants are shown than the library holds.

B1: glmS ribozyme (parent)
chain: AUAAAAGCGCCAGAACUACAGAAAUGUAGUUGACGAGGAGGAGGUUUAUCGAAUUUUCGGCGGAUGCCUCCAAA

Experiments:
Conditions in all cases: with glucosamine-6-phosphate
glucosamine-6-phosphate [1] = variants of: B1; assay: self-cleavage kobs at 40 uM GlcN6P; higher = faster cleavage; RNA array
Procedure, shortened: (§1)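 Tiles of sequenced MiSeq chips were imaged over ~14 h at 37 °C. On them, barcoded ribozyme variants had been transcribed in situ by E. coli RNA polymerase and were tracked via a hybridised Cy3 probe while glucosamine-6-phosphate (40 μM to 10 mM) in HEPES/KCl/Mg(OAc)2 buffer flowed in. Per-tile medians, normalised to baseline and to non-cleaving reference variants, were fit to one- or two-exponential decays for kobs, and weighted Michaelis–Menten fits gave kcat and KM.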

glucosamine-6-phosphate [2] = variants of: B1; assay: self-cleavage kobs at 10000 uM GlcN6P; higher = faster cleavage; RNA array
Procedure, shortened: as §1

glucosamine-6-phosphate [3] = variants of: B1; assay: self-cleavage kobs at 160 uM GlcN6P; higher = faster cleavage; RNA array
Procedure, shortened: as §1

glucosamine-6-phosphate [4] = variants of: B1; assay: self-cleavage kobs at 2500 uM GlcN6P; higher = faster cleavage; RNA array
Procedure, shortened: as §1

glucosamine-6-phosphate [5] = variants of: B1; assay: self-cleavage kobs at 640 uM GlcN6P; higher = faster cleavage; RNA array
Procedure, shortened: as §1

Variant	self-cleavage kobs at 40 uM GlcN6P (glucosamine-6-phosphate [1]) [s⁻¹]	self-cleavage kobs at 10000 uM GlcN6P (glucosamine-6-phosphate [2]) [s⁻¹]	self-cleavage kobs at 160 uM GlcN6P (glucosamine-6-phosphate [3]) [s⁻¹]	self-cleavage kobs at 2500 uM GlcN6P (glucosamine-6-phosphate [4]) [s⁻¹]	self-cleavage kobs at 640 uM GlcN6P (glucosamine-6-phosphate [5]) [s⁻¹]
AUAAACGCGCCAGAACUACAGAAAUGUAGUUGACGAGGAGGAGUUUUAUCAAAUUUUCGGCGGAUGCCUCCAAA [A6C G44U G51A]	< 1e-05	< 1e-05			
AUAAACGCGCCAGAACUACAGAAAUGUAGUUGACUAGGAGGAGGUUUAUCGAAUUUUCGGCGGAUGCCUCCAAA [A6C G35U]	< 1e-05	< 1e-05	< 1e-05	< 1e-05	
AUAAACGCGCCAGAACUACAGAAAUGUAGUUGACGAGGAGGAGGUUUAUCGAAUUUUCGGCGGAUCCGUCCAAA [A6C G66C C68G]	< 1e-05				
AUAAACGCGCCAGAACUACAGAAAUGUAGUUGACGAGGAGGAGGUUUAUCGAAUUUUCGGCGCAUGCCUCCAAA [A6C G63C]	< 1e-05	< 1e-05			< 1e-05
AUAAACGCGCCAGAACUACAGAAAUGUAGUUCACGAGGAGGAGGUUUAGCGAAUUUUCGGCGGAUGCCUCCAAA [A6C G32C U49G]	< 1e-05	< 1e-05			
AUAAACGCGCCAGAACUACAGAAAUGUAGUUGACGAGGAGGAGGUUUAUCGAAUUUUCGGCAGAUGCCUCCAAA [A6C G62A]	< 1e-05		< 1e-05		< 1e-05
AUAAACGCGCCAGAACUACAGAAAUGUACUUGACGUGGAGGAGGUUUAUCGAAUUUUCGGUGGAUGCCUCCAAA [A6C G29C A36U C61U]	< 1e-05	< 1e-05		< 1e-05	
AUAAACGCGCCAGAACUACAGAAAUGUAGUUGACGAGGAUGAGGUUUAUCGAAUUUUCGGCGGAUGCCUCCAAA [A6C G40U]	< 1e-05		< 1e-05		< 1e-05
AUAAACGCGCCAGAACUACAGAAAUGUAGUUGACGAGGAGGAGGUUUAUCAAAUUUUCGGCGGAUGCCUCCAAA [A6C G51A]	< 1e-05	< 1e-05	< 1e-05	< 1e-05	
AUAAAGGCGCCAGAACUACAGAAAUGUAGUUGACGAGGAGGAGGUUUCUCGAAUUUUCGGCGGAUGCCUCCAAA [A6G A48C]	< 1e-05	< 1e-05			< 1e-05
AUAAAGGCGCCAGAACUACAGAAAUGUAGUUGGCGAGGAGGAGGUUUGUCGAAUUUUCGGCGGUUGCCUCCAAA [A6G A33G A48G A64U]	< 1e-05	< 1e-05			
AUAAAGGCGCCAGGACUACAGAAAUGUAGUUCACGAGGAGGAGAUUUAUCGACUUUUCGGCGGAGGCUUCCAAA [A6G A14G G32C G44A A53C U65G C68U]	< 1e-05			< 1e-05	
AUAAAGGCGCCUGAACUACAGAAAUGUAGUUGACGAGGAGGAGGUUUAUCGAAUUUUCGGCGGAGGCCUCCAAA [A6G A12U U65G]	< 1e-05	0.000137 ± 4.1e-05			
AUAAAGGCGCCAGCACUACAGAAAUGUAGUUGAAGAGGAGGAGGUUUAUCGAAUUUUCGGCGGAUGCAUCCAAA [A6G A14C C34A C68A]	< 1e-05				
AUAAAGGCGCCAGAACUACAGAAAUGUAGUUGACGUGGAGGAGGUUUAUUGAAUUUUCGGCGGAUGCCUCCAAA [A6G A36U C50U]	< 1e-05	< 1e-05			< 1e-05
AUAAACGCGCCAGAACUACAGAAAUGUAUUUAACGAGGAGGAGGAUUAUCGAAUUUUCGACGGAUGCCUCCAAA [A6C G29U G32A U45A G60A]	< 1e-05			< 1e-05	
AUAAACGCGCCAGAACUACAGAAAUGUAGUUGACUAGAAGGAUGUUUAUCGAAGUUUCGGCGGAUGUCUCCAAA [A6C G35U G38A G43U U54G C67U]	< 1e-05	< 1e-05		< 1e-05	
AUAAACGCGCCAGAACUACAGAAAUGUAGUUGACGAGGAGAAGGUUUAUCGAAUUUUCGGCGGAUGCCUCCAAA [A6C G41A]	< 1e-05			< 1e-05	< 1e-05
AUAAAGGCGCCAGAACUACAGAAAUGUAGUUGACGAGGAGGUGGUUUAUCGAAUUUUCGGCGGGUGCCUCCAAA [A6G A42U A64G]	< 1e-05	< 1e-05		< 1e-05	< 1e-05
AUAAAGGCGCCAGAACUACAGAAAUGUAGUUGACGGGGAGGAGGUUUAUCGAAUUUUCGGCGGAUGCCUCCAAA [A6G A36G]	< 1e-05	< 1e-05		< 1e-05	< 1e-05
AUAAAGGCGCCGGAACUACAGAAAUGUAGUUGACGAGGAGGAGGUUUAUCGAAUUUUCGGCGGAUUCCUCCAAA [A6G A12G G66U]	< 1e-05				
AUAAAGGCGCCAGAACUACAGAAAUGUAGUUGACGCGGAGGAGGUUUAUCAAAUUUUCGGCGGAUGCCUCCAAA [A6G A36C G51A]	< 1e-05	< 1e-05		< 1e-05	
AUAAACGCGCCAGAACUACAGAAAUGUAGUUGACGAGGAGGAGGUUUAUCUAAUUAUCGGCGGAUGCCUCCAAA [A6C G51U U56A]	< 1e-05				
AUAAAGGCGCCAGAACUACAGAAAUGUAGUUGUCGAGGAGGAGGUUUAUCGAAUUUUGGGCGGAUGUCUCAAAA [A6G A33U C58G C67U C71A]	5.47e-05 ± 2.5e-05		9.68e-05 ± 2.9e-05	0.000109 ± 4.9e-05	0.000593 ± 0.00019
AUAAACGCGCCAGAACUACAGAAAUGUAGUUGACGAGGAGCAAGUUUGUCGAAUUUUCGGCGGAUGCCUCCAAA [A6C G41C G43A A48G]	< 1e-05				
AUAAAGGCGCCAGAUUUACAGAAAUGUAGUUGACGAGGGGGAGGUUUAUCGAAUUUUCGGCGGAUGCCUUCAAA [A6G A15U C16U A39G C70U]	< 1e-05				< 1e-05
AUAAAGGCGCCAGACUUACAGAAAUGUAGUUGACGAGGAGGAGGUUUAUCGAAUUUUCGGCGGAUGCCUCCAAA [A6G A15C C16U]	< 1e-05	4.37e-05 ± 1.5e-05			
AUAAAGGCGCCAGAUGUACAGAAAUGUAGUUGACGAGGAGGAGGUUUAUCGAGUUUUCGGGGAAUGCCUCCAAA [A6G A15U C16G A53G C61G G63A]	< 1e-05		< 1e-05	< 1e-05	< 1e-05
AUAAACGCGCCAGAACUACAGAAAUGUAGUUGACGAGGAGGAGGUUUAUCGAAUUUUCGACGGAUGCCUCCAAA [A6C G60A]	< 1e-05			< 1e-05	< 1e-05
